Data on eleven molecules can be found in patent US11814435B2, “Therapeutic antibodies and their uses” (PFIZER INC., priority 2015, dated 2023).

Assay [1] relates to Molp8 LucGFP orthotopic myeloma. In words: Anti-BCMA/CD3 bispecific in combination with standard of care in orthotopic Molp8 tumor model. As to conditions: FIG. 14; bispecific 0.3 mg/kg; bortezomib 1 mg/kg i.p.; lenalidomide 50 mg/kg oral gavage. The format is in vivo, NSG mice. How it is done:
In vivo efficacy study of BCMA bispecifics was performed with Molp8, expressing luciferase and GFP, orthotopic model. Two million Molp8 LucGFP cells were injected intravenously through the tail vein into 6-8 weeks old female NSG animals. Intraperitoneal injection of D-luciferin (Regis Technologies, Morton Grove, Ill.) (200 uL per animal at 15 mg/mL), followed by anesthesia with isofluorane and subsequent whole body bioluminescence imaging (BLI) enabled monitoring of tumor burden. Bioluminescent signals emitted by the interaction between luciferase expressed by the tumor cells and luciferin were captured by imaging using an IVIS Spectrum CT (Perkin Elmer, MA) and quantified as total flux (photons/sec) using Living Image 4.4 (Caliper Life Sciences, Alameda, Calif.). The animals were injected through bolus tail vein on day 7 with 20 million expanded T cells as described in Example 18. Two days post T cell injection, mice were imaged and randomized into five groups of seven mice with an average of 17E6 total flux/group: 1) Combo_Rd4_0.6 nM_C29, 0.3 mg/kg, 2) Combo_Rd4_0.6 nM_C29, 0.3 mg/kg and 1 mg/kg bortezomib, 3) Combo_Rd4_0.6 nM_C29, 0.3 mg/kg and 50 mg/kg lenalidomide, 4) 1 mg/kg bortezomib and 50 mg/kg lenalidomide and 5) vehicle. […]

Another assay concerns OPM2 cells. Nature of the assay: Anti-BCMA/CD3 bispecific with lenalidomide, carfilzomib or doxorubicin, T cell killing of OPM2 (flow cytometry live cells). The format is cell-based. Conditions: FIGS. 15A-15C; 1.56 nM carfilzomib, 195 nM lenalidomide, 6.25 nM doxorubicin; three days. How it is done:
OPM2 and CD3+ T cells were first incubated with the standard of care for two hours at 37°. 1.56 nM carfilzomib and 6.25 nM doxorubicin were diluted in PBS containing 0.02% DMSO. Lenalidomide was diluted in PBS containing 0.1% DMSO at 195 nM. Cells were treated with 10-fold serially diluted bispecific antibody.
Background: Flow cytometry measures light scatter and fluorescence of single cells or particles in a stream.

A further assay has as its target T1, BCMA (Homo sapiens, UniProt Q02223).
T1 sequence (Q02223 1-184): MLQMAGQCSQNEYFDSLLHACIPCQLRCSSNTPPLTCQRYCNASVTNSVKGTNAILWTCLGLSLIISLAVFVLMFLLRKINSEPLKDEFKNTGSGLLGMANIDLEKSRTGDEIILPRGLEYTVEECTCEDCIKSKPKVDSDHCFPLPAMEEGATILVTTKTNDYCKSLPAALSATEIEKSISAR
Conditions: background; read-out: affinity for BCMA; cited from earlier work.

Another assay concerns cynomolgus PBMC. In words: PBMC T cell proliferation by 3H-thymidine incorporation. The format is cell-based. As to conditions: FIG. 10A/10B, 2 day cultures. How it is done:
(§1) Human anti-CD3 antibodies were cloned from immunized mouse, expressed as mouse IgG1, and purified by Protein A affinity beads. Human/Cynomolgus peripheral blood mononuclear cells (hu/cyPBMC) were prepared by Ficoll (Density: 1.083 g/mL, GE) density gradient centrifugation from blood filters obtained from local blood banks. Erythrocytes were removed by incubating in LCK buffer (155 mM NH4Cl, 10 mM KHCO3, […]; Gibco) for 3 minutes at room temperature. Cells were centrifuged for 5 min at 600 g. The supernatant containing the lysed erythrocytes was discarded, and the PBMC were washed twice in 50 ml 1×PBS/1% BSA/1 mM EDTA. The pelleted cells were adjusted to 10^7 cells per ml in culture media, X-VIVO-15, serum free media (Lonza,), and the PBMC were seeded as 10^6 (100 ul) per-well to round bottom 96 well tissue culture plates. Selected Abs are 10× serial diluted from 1000 ng to 1 ng per mL for mixing with human PBMC and 5× serial diluted from 5000 ng to 200 ng per mL for mixing with cynomolgus PBMC. For analysis of PBMC T cell proliferation by ^3H-thymidine incorporation, 2 day cultures were performed in triplicate. During the final 16 h of culture ^3H-thymidine ([…]) was added, and incorporation was measured. Cells are harvested and lysed, DNA is captured onto glass-fiber filter. Radioactivity (cpm) as measure for proliferation by counting on a scintillation beta-counter.

The next assay relates to human PBMC. The description is as above. The format is cell-based. Conditions: FIG. 10A/10B, 2 day cultures. The protocol:
as §1

In a further assay the target is bsc_hCD3ed (Homo sapiens, UniProt P07766). In words: Biacore kinetics anti-xCD3e ab/bsc_hCD3ed. The format is binding. Conditions: data fitted from 80 nM-0.64 nM. (Surface plasmon resonance follows binding to a sensor surface in real time, without labels.)
bsc_hCD3ed, sequence (P07766 23-126 limits assumed): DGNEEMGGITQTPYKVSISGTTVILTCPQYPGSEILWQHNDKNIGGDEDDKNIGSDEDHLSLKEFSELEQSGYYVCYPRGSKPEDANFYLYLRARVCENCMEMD
bsc_hCD3ed, sequence (P04234 22-105 partner limits assumed): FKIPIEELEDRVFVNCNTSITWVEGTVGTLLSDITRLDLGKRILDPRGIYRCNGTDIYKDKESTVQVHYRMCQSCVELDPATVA
For another assay, the target named is hCD3 (human CD3) (Homo sapiens, UniProt P07766). In words: Kinetics and affinity of hCD3/human IgG interactions by SPR (Bio-Rad Proteon XPR36). The format is binding. How it is done:
All experiments were performed on a Bio-Rad Proteon XPR36 surface Plasmon resonance biosensor (Bio-Rad, Hercules, Calif.). An array of anti-CD3 antibodies was prepared using an amine-coupling method on a Bio-Rad GLC Sensor Chip similar to that described in Abdiche, et al., Anal. Biochem. 411, 139-151 (2011). The analysis temperature for the immobilization was 25° C. and the running buffer was HBS-T+(10 mM HEPES, 150 mM NaCl, 0.05% Tween-20, pH 7.4). Channels were activated in the analyte (horizontal) direction by injecting a mixture of 1 mM ECD and 0.25 mM NHS for 3 minutes at a flow rate of 30 μL/min. IgGs were immobilized on the activated spots by injecting them in the ligand (vertical) direction at 20 μg/mL in 10 mM Acetate pH 4.5 buffer for 1.5 minutes at […]. The activated surfaces were blocked by injecting 1M ethanolamine, pH 8.5 in the analyte direction for 3 minutes at 30 μL/min.
The analysis temperature for the hCD3 binding analysis was 37° C. or 25° C. in a running buffer of HBS-T+, supplemented with 1 mg/mL BSA. A kinetic titration method was employed for the interaction analysis as described in Abdiche, et al. The hCD3 (human CD3) analyte was injected in the analyte direction using a series of injections from low to high concentration. The concentrations used were 0.08 nM, 0.4 nM, 2 nM, 10 nM and 50 nM (a 5-membered series, with a 5-fold dilution factor and top concentration of 50 nM). The association time for a given analyte dilution was two minutes. Immediately after the 50 nM hCD3 injection, dissociation was monitored for 2 hours. Prior to the hCD3 analyte injections, buffer was injected 5 times using the same association and dissociation times at the hCD3 analyte cycles to prepare a buffer blank sensorgram for double-referencing purposes (double referencing as described in Myszka, J. Mol. Recognit. 12, 279-284 (1999).
The sensorgrams were double-referenced and fit to a 1:1 Langmuir with mass transport kinetic titration model in BIAevaluation Software version 4.1.1 (GE Lifesciences, Piscataway, N.J.).

The next assay deals with cyCD3ed (Macaca fascicularis, UniProt Q95LI5). Nature of the assay: Kinetics and affinity of cyCD3ed/human IgG interactions by SPR (Bio-Rad Proteon XPR36). The format is binding, cynomolgus.
cyCD3ed, sequence (Q95LI5 22-117 limits assumed): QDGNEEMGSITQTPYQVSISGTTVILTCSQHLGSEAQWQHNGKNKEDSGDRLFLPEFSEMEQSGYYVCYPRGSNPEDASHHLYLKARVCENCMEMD
cyCD3ed, sequence (Q95LI8 22-105 partner limits assumed): as the sequence (P04234 22-105 partner limits assumed) above, with I5V, N15K, I20V, S32T, D33N, I34N, T64A, S74N, V83L counted along it

hCD3 (human CD3), sequence (P07766 23-126 limits assumed): as the sequence (P07766 23-126 limits assumed) above
hCD3 (human CD3), sequence (P04234 22-105 partner limits assumed): as the sequence (P04234 22-105 partner limits assumed) above

Take `CC(C)C[C@H](NC(=O)[C@H](Cc1ccccc1)NC(=O)c1cnccn1)B(O)O` [bortezomib, [(1R)-3-methyl-1-[[(2S)-1-oxo-3-phenyl-2-[(pyrazinylcarbonyl)amino]propy-l]amino]butyl]boronic acid]: the “effect of combining on the efficacy of the anti-BCMA/CD3 bispecific antibody” value in assay [1] was “did not have a negative effect”.

For the molecule `CC(C)C[C@H](NC(=O)[C@H](CCc1ccccc1)NC(=O)CN1CCOCC1)C(=O)N[C@@H](Cc1ccccc1)C(=O)N[C@@H](CC(C)C)C(=O)[C@@]1(C)CO1` [carfilzomib], the “effect on the function of Combo_Rd4_0.6 nM_C29-CD3 bispecific antibody on OPM2 cells” value (from here on “effect on the function”) with OPM2 cells is listed as “do not have a negative effect”.

With `COc1cccc2c1C(=O)c1c(O)c3c(c(O)c1C2=O)C[C@@](O)(C(=O)CO)C[C@@H]3O[C@H]1C[C@H](N)[C@H](O)[C@H](C)O1` [doxorubicin], in the assay on OPM2 cells, the “effect on the function” value is on record as “do not have a negative effect”.

Turning to `Nc1cccc2c1CN(C1CCC(=O)NC1=O)C2=O` (stereo not shown) [lenalidomide], in the assay on OPM2 cells, the “effect on the function” value is given as “do not have a negative effect”. The “effect of combining on the efficacy of the anti-BCMA/CD3 bispecific antibody” value in assay [1] is “did not have a negative effect”.

As for “APRIL: a proliferation-inducing ligand, ligand of BCMA”, in the assay with BCMA, the Kd is 16 nM.

Regarding “BAFF: B-cell activation factor, ligand of BCMA”, the Kd in the assay with BCMA was 1000 nM.

B1: 1A4: anti-CD3 antibody cloned from mouse hybridoma, expressed as mouse IgG1 (antibody, V domains shown)
VH: QVQLQQSGPDLVKPGASVEISCKASGYSFTTYYLHWVRQRPGQGLEWIGWIFPGSDNTKYNEKFKGKATLTADTSSSTAYMQLSSLTSEDSAVYFCARNRDYYFDYWGQGTTVTVSS
VL: DIVMSQSPSSLAVSAGEKVTMSCKSSQSLLNSRTRKNYLAWYQQKPGQSPKLLIYWASTRASGVPDRFTGSGSGTDFTLTISSVQAEDLAIYYCKQSFILRTFGGGTKLEIK
modifications: mouse IgG1 constant regions
For the molecule B1, the Thymidine incorporation result in the assay on cynomolgus PBMC and with human PBMC was “had Thymidine incorporation reading” in each case.

B2: 7A3: anti-CD3 antibody cloned from mouse hybridoma, expressed as mouse IgG1 (antibody, V domains shown)
VH: EVQLQQSGAELVRPGALVKLSCKGSGFNIKDYYIHWVKQRPEQGLEWIGWIDPENGNNKYDPKFQGKASITADTSSNIAYLQLSSLTSEDTAVYYCARNDNYAFDYWGQGTTVTVSS
VL: DIVVSQSPSSLAVSAGEKVIMSCKSSQSLLNSRTRKNYLAWYQLKPGQSPKLLIYSASTRESGVPDRFTGSGSGTDFTLTISSVQTEDLAVYYCMQSFTLRTFGGGTKLEIK
modifications: mouse IgG1 constant regions
For the molecule B2, the Thymidine incorporation entry with cynomolgus PBMC and in the assay with human PBMC was “had Thymidine incorporation reading” each time.

B3: 1C10: anti-CD3 antibody cloned from mouse hybridoma, expressed as mouse IgG1 (antibody, V domains shown)
VH: QVQLQQPGSELVRPGASVILSCKASGYTFTSYWMHWVRQRPGQGLEWIGNIYSGGDTINYDEKFKNKAILTVDTSSSTAYMHLSSLTSEDSAVYYCTRDATSRYFFDYWGQGTTVTVSS
VL: DIVMSQSPSSLAVSAGEKVTMSCKSSQSLLNSRTRKNYLAWYQQKPGQSPKLLIYWASTRESGVPDRFTGSGSGTDFTLTIDSVQPEDLAVYYCTQSFILRTFGGGTKLEIK
modifications: mouse IgG1 constant regions
Regarding B3, in the assay with bsc_hCD3ed, the ka was determined as 2.96E+05 and the kd amounted to 2.37E−03. Further, the Thymidine incorporation entry in the assay with cynomolgus PBMC is “had Thymidine incorporation reading”. In addition, in the assay with human PBMC, the Thymidine incorporation result is on record as “had Thymidine incorporation reading”.

B4: h2B4: anti-CD3 antibody (antibody, V domains shown)
VH: EVQLVESGGGLVQPGGSLRLSCAASGFTFSDYYMTWVRQAPGKGLEWVAFIRNRARGYTSDHNASVKGRFTISRDNAKNSLYLQMNSLRAEDTAVYYCARDRPSYYVLDYWGQGTTVTVSS
VL: DIVMTQSPDSLAVSLGERATINCTSSQSLFNVRSRKNYLAWYQQKPGQPPKLLISWASTRESGVPDRFSGSGSGTDFTLTISSLQAEDVAVYYCKQSYDLFTFGSGTKLEIK
As for B4, in the assay with hCD3 (human CD3) (25° C.), the “ka huCD3ed @25° C.” value was found to be 370000 M⁻¹ s⁻¹ and the “kd huCD3ed @25° C.” value worked out at 0.002 s⁻¹. Moreover, in the assay with hCD3 (human CD3) (37° C.), the “ka huCD3ed @37° C.” value worked out at 437000 M⁻¹ s⁻¹ and the “kd huCD3ed @37° C.” value was 0.01369 s⁻¹. Moreover, in the assay with cyCD3ed, the “ka cyCD3ed @25° C.” value was determined as 390000 M⁻¹ s⁻¹ and the “kd cyCD3ed @25° C.” value was 0.0015 s⁻¹.

B5: 2B4: anti-CD3 antibody cloned from mouse hybridoma, expressed as mouse IgG1 (antibody, V domains shown)
VH: EVKLVESGGGLVQPGGSLRLSCATFGFTFTDYYMTWVRQPPGKALEWVAFIRNRARGYTSDHNASVKGRFTISRDNSQNILYLQMNTLRAEDSATYYCARDRPSYYVLDYWGQGTTVTVSS
VL: DIVMSQSPPSLAVSVGDKVTMSCTSSQSLFNSRSRKNYLAWYQQKSGQSPKLLISWASTRESGVPDRFTGSGSGTDFTLTISSVQAEDLAVYYCKQSYDLFTFGSGTKLEIK
modifications: mouse IgG1 constant regions
In the assay with bsc_hCD3ed, B5 displayed a ka of 3.74E+05 and a kd of 2.74E−03. Besides, the Thymidine incorporation entry with cynomolgus PBMC was “had Thymidine incorporation reading”. For the same molecule, in the assay on human PBMC, the Thymidine incorporation entry is listed as “had Thymidine incorporation reading”.
